Measurements: a protein production outcome set (Wang et al. 2014)

Assay: label from the status in PepcDB records

For “MERILLVLDDTGRGEIAFQKLKKLAEDGLRGEVYILYIREMEVPPFVPEEKELAAYHRLMTQSMKKLEGFKNQLEKAGLKVSDVSVVFGKYADRLLLVEKQIKPDLIVVGFKGGLLKRVIGGFFGKDPCEVLLKKSKASLLICR”, the protein production was “not failed”.

In the case of “MTMLLSIIVPTFKPQKTYFEECLFSLFNQTMFHYLYEVIVVLNGDIDTQYTDMILDIFAYKPAGLYCRLIKTDQAGVSNARNLGIDAAKGQYIGFVDDDDIVSSDYLEELCKISSRNIVGVSNVHTFRKTIEEKEDNFFACRIIQQRECQYSLFRNRAILAFPVAKLIHRDIIGNRRFNPRFKNGEDALFMTEISDLIGGFRFTKEYTTYYVRERAGSASRRPLKRGQLCWDTFMLIKAYVSIYLSSPFSYNFLLFASRIPGSIKGAIKLSRNTAFFLEHHHHHH”, the protein production was “failed”.

In the case of “MIQAVFERAEDGELRSAEITGHAESGEYGLDVVCASVSTLAINFINSIEKFAGYEPILELNEDEGGYLMVEIPKDLPSHQREMTQLFFESFFLGMANLSENYSEFVQTRVITEN”, the protein production was “not failed”.

In the case of “MIDTMQYGKNDSLRDEIKAYWSGRAATFDLSPGHEIFSEDERAAWHALILKHLGRGEGRKALDLASGTGVISHLMDDLGFQVTGMDWSETMLGLAREKAKSRGRNIRFFVGDAENTMEPDESADVIITRHLVWTLVDPQASFAEWFRVLKPGGKLLIVDGDFVNTGWRERLVKKLAVSLESIGLVKADQPHKPADPENTFNSILSRVYFSKGARAGDVATMLGATGFEPVSVDQELRAIHRAQAKNFSLLKGILRGLQHRYAVCAVKPDTSVKG”, the protein production was “failed”.

For “EDVKEFEREETQDKEESVESSLPLNAIEPCVICQGRPKNGCIVHGKTGHLMACFTCAKKLKKRNKPCPVCRQPIQMIVLTYFP”, the protein production was “failed”.

In the case of “MKQKDLKRAYNNVLAQAISGSKQYLFAGNLFGDIFVLRIKELDKGSEEPPGKLKIFPQGSDVDINYLAFHRDFLIVGAVGLIYGLEWNEEEESLATKRSWEVKIPMQVDAVEVPDVNSMWLDSENSILFAGCGDGVIYQVSLEDGRIQREYRGHTDYVHSVVGNANGQIFSGAEDGTVRVWSTKQQQHTSMLEPYKNPNLLRPDWGKWIGAVAVNEDWLLCGGGPKASIFHLRSMESTCVFSFPGRVHLCDFVDDCVLIGGEHNHVQSYTLNGVLQANIPVEHTACYSAVWQTSPIKFISIAGFSNKLHILKDFRFLDSKIEMYGNVEGEENDPEEEDELIEKPLTVEAA”, the protein production was “failed”.

With “MGHHHHHHENLYFQSHMDSKRAALESGDGPDAKRLDTTDDQDKEASGGDGSQVMLAKHVAPYTGHGCTPPMESYLFEPTPAGSQLLPWKTSVDLDNDAELEKPTSDKKPDTAKLSRRELAKMRREHTLRALALERELTNKPGQTPASEVLLVRFPDPEITAPMLAG” the protein production was “not failed”.

In the case of “MKIKHWDRWLASLKDDDYLKNIEAIKLYLAVMSIYEPDLLDEYMIDDDFHPMISRLKNVTLDVTSARFKELYITESKMNYARDELDGAMIISKTLTKSDIVGNVALPKAQVMSVLTRMNGVTDEGLDNGFEVQVHDIMEDDLYTVTLKRIDDMKYYFGTGWSTMKHSLDLVEGDVQKLYWDQFENKFIVLNFQHKTMGIMIPV”, the protein production was “failed”.

With “MNAMLVGADTLGNIPDVLQNYGITIHRHLSGRNSSHQRKVDRLPAGTDLLILFTDFLGHNVMRHFRELAAEQQIRFIACRRSVCALKQSLTGAGMCEQPCAACPQRSGGDKPVKRKR” the protein production was “failed”.

For “MGAKGKFWILTMVVAISGLSQGVLLPLIAIILEERGISAGINGFHATGIYLGVLLISPFIEAPLHKYGYKPIILVGGGLVAVSILAFPIWFNLYFWFILRLLIGVGDHMLHFSSQTWIGAMSDPSKRGRNMAIYGLFFSLGFAIGPQLVNLAEINANLPFFLSGILVLIAWGLVWFVRNDFVGEKAVIRKISFWGSLKRFSDVFKLAWVAMIPPFLYGILETGLNATFPVVGLRDGLDTMMIAMVISSFSVGTIIFQVPIGIVSDKFGRGKVLPLLTGAGAVVFVLTAFVKIPVLYVVFFFVLGILLGSLYSLGLSYMTDLTPLELLPAGNILVGMCFSLGSIIGPSATGMMIGIFGNQIFYFVVAGILVLGCLLLIFGARKDALEKKMKN”, the protein production was “failed”.

With “EMTLVTLRSNDQFNTTIYGFSDRLRGLEGPRNVLLMNPEEIARHGLHEGQRVTLECAWSDGVDRRVSGLRVTAYDLPDSCVGAYYPETNPLVPLAARDELSGTPAYKGTPVRVRAEGSAAPL” the protein production was “failed”.

For “MSQSMYSYPAMTANVGDMAGYTGTTQSLGADIASERTAPSRACQGDLGMSHQDWQAQWNQAMEALARAYRRCRRALRQIGVLERPVGDSSDCGTIRVGSFRGRWLDPRHAGPATAADAGD”, the protein production was “failed”.

In the case of “MSNVAQYKDGTYIGKAQGKAAEVEVTVSIKEGKIANAEVLKHGDTEAMMLSATDQIVPELIEKQDINKVDAVTGATLSSQGVINAVKQALEQAKVTPLEHHHHHH”, the protein production was “not failed”.

For “MTADPTKNDPHGLGTASRPAAELAVGETETIPVIEETARIDKRVVEKGRVRVQTRTETTDDVLRETLRSDVVGVTRIPIDRVIAEGEVAPTIRTENGVTIIPVLEEVLVVEKRLILKEEVHIRQTTSGEAVEVPVTLRRQHAVVERVSADGHVSEIPPKEQTP”, the protein production was “failed”.

In the case of “MMDAMTDPITFAATAAGRDAAHPLRDISFGEIGIATERKPDGTIYVRSTTTLTDYPVRITDRLHHFAETAPDRVFMAERNGEGGWRRISYAEMLRAAQTIASALIARGLSAERPVMILSGNSIDHAMVMFGALYAGVAMCPVSPPYSLVSKDYGKLRHIVGLLTPGLIFADDITAFAPAILATVPEDVELAATRGEVKGRKVTSLAELLATPEHPELAAKHEAIGHDTIAKFLLTSGSTGNPKAVINTQRMICANQVMIREAMAFLKDEPPVIVDWLPWNHTFGGNHNIGLTLFNGGSMYIDDGKPTPAGIASTIRNLREIAPTVYFNVPKGYESLLPVLREDQQLRKLFFSRLHAMFFSGASLAAHVWNGLDEVAVAETGARVPMLTGLGATETAPFFMSVTPQTSRSGHVGLPVPGNEAKLVPNNGKLEVRAKGPNITPGYWRAPELTDKAFDEEGFYKLNDALKPVDANDLSRGFDFDGRISEDFKLASGTWVSVGPLRAKFIAACASLVRDVVIAGLDRDYVTALAILDPDGCKLINATLPLEDLAGMAADHLIREAFRERFATLLTQATGSSNRVTRAVLLGEPLSIDKGEITDKGSVNQRAVLEYRASLIADLYADPPPAHVIALELEHHHHHH”, the protein production was “not failed”.

For “MEATKERVGLLDTILPPALADAGLEDCALPPESIQEAFRKAANAVKSRAASIFDHEEEDGCLADPIPETADKIIVGGDNERDTGPCLAGKGIEKLAESKQAGDLVVAGEGEEGKSCVDGLKDLDVEGIERSSEKKDQSDEDEEEEMKPILVEGFV”, the protein production was “failed”.

For “MDKDLKLRPRIKRLLSPAVMQAELLGGAAWLWVLMLGPSVKINLFTCFLTLSLACICWIQHTTTVFCIWRLLGIAYMLLLATGFFYLMDGDPEINIFALPLTITLAISSALLFVKFLDYLLSAVFVWLLTWLCWQEGVYGEIGIYVWIFCVASVCIGSVLNISYIKTLRAVLSLESKFRELAETDYLTSIPNRRAFMESFDSLIKGGESGYLIMLDIDNFKLINDRHGHEIGDRILCSMAACLRATSGSHCAGRIGGEEFGVLITGGDELTACDYILRLLETVRANFDPPYNYSCSVGMVRFSAASTMSEALSMADKSMYIAKRNGKDCAYFEGQEIVSFLFDDSKLKEKYPTETLSENTYQTDTQ”, the protein production was “failed”.

In the case of “MARAPARARGSRGLNCLAGSQQTRIPAQETDDLFTTCQFGETEEDTAVEEAETIDCLSIPKQKLAQSQKKINQFINEKMSTKANKELIRCFILSQIVFGKEHWKCAQALANLAYGYLTLRGLPAQAKKHAESARNTLLTWKRNTTSDKEKKEILETLVILYYTLGIAWLLQNHGKQAYIHLQKAQRNMKELKELNNGSIYEIQVSDKDLTIALGRASLAMHRMHLALAYFEKAICGVILAKGHDTSDLISLYEEIAQIEQLRKNHEQAIQYLQQAYSISVSSFTEVSPQTAEASALLAKAYAMSGESQHRDAVEIYFIRSISTYQTLGSEDYETLTTIEDFCTWLIQNGEKQEAYRLLKSTLNSCTFGDCGKKVAETFYNMGSICFAKGELREAIALLRKCLMIQSLIYGSEHTKSIETKSLLSLLQRPISRFPRTAEQSHGVVARAQMSKISAGMALSASASHWNNQSQMSWDSACIPMGASVLYDTSFRNAVKYSLDCHGQQPEFLSCGGSAS”, the protein production was “failed”.

For “MPLVLDLARPVSEEELRRLSELNPGYQWERSPEGRLWVSPTGGESGRRSLQLAYQLARWNEERGLGVVFDSSTGFKFPDGSILSPDAAFVERGAWEALSEAEREGFPPLAPKAVFEVRSASQDPEELRAKMGIYLRNGVLLGVLVDPYARAVEVFRPGKPPLRLEGVERVSLDPELPGFALSLPPLW”, the protein production was “not failed”.

For “MSVFTKTSVASAATTCLFVLLWSSGAIVSKLGLAHASPFAFLLLRSALALAGLLLIGPLLGLRWPRTRGSILRALGTGCVLLGAYQIFYLLALDTHVTPGVMATVMGVQPILTVVLMERQRSWSRLFGLGLGLGGLIMVVYQGINLGGVSLAGMLFALLALVSMTFGSILQKRITDNPMGTLPLQYLAGFAMCALFAPLQPLHVEWTGSFVGALLWMGLVVSLLATLLLYRLIAKGNLVNVTSLFYLVPAVTAVMDLLIFGNRLAPLSLLGMGLIVVGLLFVFRKPAARLAEA”, the protein production was “failed”.

For “MIIYNIVYPMILILLYEYLAVNYFKGDKSITSSYYYVIVLIPFFIFTNIITMAYVAKDESLSKTAYRFLSAPIDNSAIVLSKIISCTVISWGCSLILLIISKVLLSVNFEGSTLKILILFFTENFMAAAIGIFLGIVMKNFKTIKGILNIPISILGVLGGCFFPVGALGRTFEKVSYISPFTWINRGIISEVYDKSQTILVGTILVTLVFGIIFSIGASILFNKEVFL”, the protein production was “failed”.

In the case of “MTASIFSGVIPALMTPCRQDRTPDFDALVRKGKELIADGMSAVVYCGSMGDWPLLTDEQRMEGVERLVKAGIPVIVGTGAVNTASAVAHAVHAQKVGAKGLMVIPRVLSRGSVIAAQKAHFKAILSAAPEIPAVIYNSPYYGFATRADLFFALRAEHKNLVGFKEFGGPADMRYAAENITSRDDEVTLMIGVDTAVVHGFVNCGATGAITGIGNVLPKEVIHLCKLSQAAAKGDADARARALELEQALAVLSSFDEGPDLVLYFKYMMVLKGDKEYTLHFNETDALTDSQRGYVEAQFKLFNSWYADWSKLPGAVQTCKAA”, the protein production was “not failed”.

With “MKSITQLENKKVLVLGLAKSGEAAARLLAKLGAIVTVNDGKAFEENPSAQSLLEEGIKVVCGGHPLELLDENFELMVKNPGIRYDNPMVARALEKEIPVWTEVELAYLVSEAPIIGITGSNGKTTTTTMIADVLNHGGKSGVLSGNIGFPASEVAQSVTNQDTLVMELSSFQLMGIESFHPHIAVITNLMPTHIDYHGSFEEYVAAKWNIQNEMTSDDFIILNFNQDLAKELATQTNAQVVPFSTVEKVDGAYLENGGLYFKGELLMHADELGVPGSHNVENALATIAVAKLSGVSNQAIKETLSSFGGVKHRLQFVDTIDDVKFYNDSKSTNILATQKALSGFDNSKVILIAGGLDRGNEFDELIPDITGLKKMVILGESAPRVKRAADKAGVTYLDAKDVADATRIAFEQASAGDVVLLSPANASWDMYKNFEVRGDEFITTVERLKG” the protein production was “failed”.
